Consider 36 sequences from the supplement of paper PMC10567573.

± gives the standard deviation.

The nature of the series: protein stability index of a GFP-peptide fusion (GPS, HEK-293T) (PSI 1-6); higher = more stable. The settings on record: c terminus: a fixed tail appended.
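Also: 24-mer peptide tiles fused after GFP, lentivirally expressed, FACS-sorted into six equal bins by GFP/DsRed ratio, decoded by Illumina sequencing, PSI is the read-weighted mean bin number.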

Regarding ALVCQVDNDHKEAVGKMGFVVTML [ZER1], the protein stability index by setting is: (treatment: DMSO) 2.29 ± 0.29; (treatment: MLN4924 1 uM, 8 h) 2.37 ± 0.5.
For AMAMGTPSTTERISTSGQAGTSSH [PXN], in that order: 4.86 ± 0.31 and 4.98 ± 0.1.
In the same order, the values of AMEAVRVNPLHVDSTWLLLRRIRA [SLC25A39] are 2.66 ± 0.41 and 2.81 ± 0.19.
For ANGTVIAEFILLGLLEAPGLQPVV [OR3A1], in that order: 3.06 ± 0.61 and 2.7 ± 0.35.
Consider ANNRILAERIAKEIQVIPLQRDDE [IMPA1], for which the protein stability index was 4.17 ± 0.38 (treatment: DMSO) and 4.04 ± 0.068 (treatment: MLN4924 1 uM, 8 h).
Take ANTMEHLSLLDNNIPGNSTLITAV [FBXO33]: the protein stability index by setting is: (treatment: DMSO) 3.16 ± 0.17; (treatment: MLN4924 1 uM, 8 h) 3.25 ± 0.33.
Take APPAKLACPVCSKMVPRYDLNRHL [FAN1]: the protein stability index runs as follows: (treatment: DMSO) 2.39 ± 0.21; (treatment: MLN4924 1 uM, 8 h) 2.95 ± 0.55.
On to APSLSGKGNPEEEDVDTSQVLYEW [CTNNB1], for which the protein stability index (treatment: DMSO) turned out to be 5.14 ± 0.28 and the protein stability index (treatment: MLN4924 1 uM, 8 h) was 5.15 ± 0.18.
For APSPGVKEQAIWKHPQPAPAVTPD [PKD2L1], in that order: 5.15 ± 0.1 and 5.07 ± 0.13.
On to AQKLTIRLSSRYRYGQLIEINSHS [TRIP13], for which the protein stability index stood at 2.17 ± 0.55 (treatment: DMSO) and 2.01 ± 0.27 (treatment: MLN4924 1 uM, 8 h).
AQRVKEVLPHVPLGVIQRDLAKTG [AUP1] registered a protein stability index (treatment: DMSO) of 3.81 ± 0.42 and a protein stability index (treatment: MLN4924 1 uM, 8 h) of 3.85 ± 0.17.
For AQSAGTQQVAAVSSVSPATPFQSV [BRD3], in that order: 4.42 ± 0.19 and 4.37 ± 0.11.
Regarding AQSRLEDPGADSEKSTVVEGGEVR [DLX1], the protein stability index is, setting by setting: (treatment: DMSO) 5.42 ± 0.28; (treatment: MLN4924 1 uM, 8 h) 5.45 ± 0.37.
Take AQTNPTPGSLGPWKITIYDQENFQ [CRYBA1]: the protein stability index reads like this: (treatment: DMSO) 3.18 ± 0.41; (treatment: MLN4924 1 uM, 8 h) 3.3 ± 0.2.
ARQELLGDRPRWQRLLGEDKFQWL [ANKRD9] gave a protein stability index (treatment: DMSO) of 2.66 ± 0.46 and a protein stability index (treatment: MLN4924 1 uM, 8 h) of 2.98 ± 0.31.
For ASFRVTTGTSNTTAIKSIEFARKG [RBBP5], in that order: 3.91 ± 0.62 and 3.86 ± 0.23.
For ASLLPSARLASPLPREEEIVFPEK [ADAMTS4], in that order: 4.7 ± 0.63 and 4.97 ± 0.46.
With ASSMLRKSQLGFLNVTNYCHLAHE [DCAF4], the protein stability index stood at 2.2 ± 0.41 (treatment: DMSO) and 2.42 ± 0.16 (treatment: MLN4924 1 uM, 8 h).
Take ASVATWAIFVHRVGQPSIGGKLSP [CTBP1-DT]: the protein stability index reads like this: (treatment: DMSO) 2.65 ± 0.9; (treatment: MLN4924 1 uM, 8 h) 2.33 ± 0.33.
On to ATDNYDIGFGVYFEWTDSPNTAVS [ACBD3], for which the protein stability index reads like this: (treatment: DMSO) 2.21 ± 0.16; (treatment: MLN4924 1 uM, 8 h) 2.25 ± 0.48.
For ATGEVLGQFYLDLYPREGKYNHAA [NLN], in that order: 2.91 ± 0.83 and 2.73 ± 0.27.
In the same order, the values of AVLAASSPYFHDQVLLKGMTSISL [ZBTB22] are 2.7 ± 0.32 and 2.47 ± 0.34.
As for AVLGLYLLVFLILVGIFILAVSRP [SCARA5], the protein stability index runs as follows: (treatment: DMSO) 3.3 ± 0.071; (treatment: MLN4924 1 uM, 8 h) 2.58 ± 0.63.
Take AVPTDEARAFAEKNNLSFIETSAL [RAB11B]: the protein stability index by setting is: (treatment: DMSO) 3.31 ± 0.31; (treatment: MLN4924 1 uM, 8 h) 3.47 ± 0.54.
For AVSAMKCGLLPISPEALSLGEVAY [ADD1], in that order: 2.31 ± 0.3 and 2.41 ± 0.066.
For AYSGNTSNLSYHLEKNHPEEFCEF [ZBED1], the protein stability index reads like this: (treatment: DMSO) 3.63 ± 0.38; (treatment: MLN4924 1 uM, 8 h) 3.55 ± 0.48.
For the sequence CASDEGEVIVFGGCANNLLVHHRA [KLHDC2], the protein stability index (treatment: DMSO) came out at 2.6 ± 0.35 and the protein stability index (treatment: MLN4924 1 uM, 8 h) is 2.27 ± 0.29.
For CDYCDRSFQDNLHNRKKHLNGLQH [ZMAT5], the protein stability index by setting is: (treatment: DMSO) 3.09 ± 0.71; (treatment: MLN4924 1 uM, 8 h) 3.11 ± 0.38.
In the same order, the values of CERVVINVSGLRFETQMKTLAQFP [KCNA4] are 2.55 ± 0.42 and 2.51 ± 0.77.
For CHLCNYACRRRDALTGHLRTHSVI [IKZF1], in that order: 3.06 ± 0.26 and 3.15 ± 0.4.
For CKKAFREGSRKSSRVKGSAPEIDP [KMT2E], the protein stability index reads like this: (treatment: DMSO) 4.46 ± 0.15; (treatment: MLN4924 1 uM, 8 h) 4.48 ± 0.15.
For CPAELFTNTRSDLDVFGRGDNISD [LUC7L3], in that order: 4.38 ± 0.26 and 4.65 ± 0.19.
For CRGIPRGPVRPAIPPPLSSVYAWG [NEK8], in that order: 2.3 ± 0.36 and 2.35 ± 0.43.
For CRLTHIPAYKVSGDKNEEQVLNAI [ZER1], in that order: 3.5 ± 0.42 and 3.42 ± 0.3.
As for CSPSQMDLLCAQLQLPQLSDLGLL [FANCE], the protein stability index stood at 2.15 ± 0.42 (treatment: DMSO) and 2.13 ± 0.44 (treatment: MLN4924 1 uM, 8 h).
For CSSPSVVASLPLDQSDEGSSSQKE [MAGEA10], in that order: 5.36 ± 0.74 and 5.49 ± 0.1.
